Experimental data: patent publication US20110165265A1, “TRAIL VARIANTS FOR TREATING CANCER” (FUNDACIÓ GENÒMICA (CRG), priority 2007, published 2011)
Entries after “also recorded” stand apart in the source; their conditions may differ.

Key:
[1] = tested on: Caski cells; test: Cell survival / sensitivity of Caski; type: cell-based
[2] = tested on: EM-2 cells; test: Cytotoxicity in EM-2 cells; type: cell-based
From the text: Similar results were obtained by using EM-2 chronic myeloid leukemia cells expressing only the DR4 receptor and lacking the DR5 receptor and by using the ovarian cancer cell line A2780, which expresses DR5 but lacks DR4 on its surface and is relatively insensitive toward TRAIL-induced cell death.

[3] = tested on: HCT15, HT29 and RKO cells; test: Cell survival of HCT15, HT29 and RKO; type: cell-based
[4] = tested on: Colo205 tumors; test: Colo205 tumors in athymic nude mice; type: in vivo; settings: for anti-tumor effect, single therapy: 1 and 5 mg/kg IP
Experimental: The anti-tumor effect of rhTRAIL WT and D269HE195R was tested in a small number of athymic nude mice carrying a tumor of Colo205 cells (n=3 to 5 per group). The rhTRAIL proteins were tested in doses of 1 and 5 mg/kg, given by intraperitoneal injections for 2×5 days (day 1-5 and 8-12) with a daily doses of aspirin (in the same syringe as protein).
In a third study the combination between TRAIL and aspirin was tested. […] Both were tested in doses of 1 and 5 mg/kg, given by intraperitoneal injections for 2×5 days (day 1-5 and 8-12) with daily doses of aspirin (in the same syringe as protein). Data is only presented until day 13, because of too many fluctuations and mice dying after this day.

[5] = molecular target: T1, DcR2 (Homo sapiens, UniProt Q9UBN6); settings: cited from earlier work
T1 construct: soluble, recombinant DcR1-Ig (sDcR1) and DcR2-Ig (sDcR2); purchased R&D Systems
T1 sequence (Q9UBN6 56-211 limits assumed): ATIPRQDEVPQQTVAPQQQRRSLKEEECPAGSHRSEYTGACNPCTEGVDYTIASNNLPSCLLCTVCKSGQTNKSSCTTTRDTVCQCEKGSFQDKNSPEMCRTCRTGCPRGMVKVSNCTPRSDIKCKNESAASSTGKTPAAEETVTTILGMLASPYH

[6] = tested on: SiHa cells; test: Cell survival / sensitivity of SiHa; type: cell-based
From the text: (A) Effect of increasing concentration of Bortezomib on cell survival. […] (C) 10Gy Radiotherapy had no effect in further decreasing cell viability of SIHA cells in both TRAIL and DR5 mutant treated cells.

[7] = tested on: Colo205 cells; test: DEVDase (caspase) activity in Colo205; type: cell-based, human; settings: Colo205, 5 mM aspirin 24 h
Experimental: (A) Aspirin induces expression of DR5, DcR1 and DcR2 on the cell surface. Colo205 cells were treated with 5 mM aspirin for 24 h and cell surface expression of DR4, DR5, DcR1 and DcR2 was measured by immunostaining and detected with flow cytometry. The histograms shown include isotype control (black, open peak), untreated Colo205 (grey, closed peak) and aspirin-treated Colo205 (grey, open peak) samples. The histograms are representatives of three independent experiments. […] DEVDase activity was expressed as average nmol AMC released per minute by 1 mg total cellular protein±SD of 3 independent experiments.
In order to determine the cell surface expression of each of the TRAIL receptors on A2780 carcinoma cells, cells were washed twice in PBS containing 1% BSA and then incubated with monoclonal antibodies to DR4, DR5, DcR1 or DcR2 (Alexis) for 40 min. After two wash steps with PBS/BSA, anti-mouse IgG-FITC (Sigma) secondary antibody was added for 30 min. All incubations were carried out on ice. Negative controls contained isotype control antibody. Cells were analyzed by a FacsCalibur flow cytometer. […] Substrate cleavage leading to the release of free AMC was monitored at 37° C. at 60 sec intervals for 25 cycles using a Wallac multilabel counter (excitation 355 nm, emission 460 nm). […]

[8] = tested on: Colo205 cells; test: Colo205 apoptosis after pre-incubation of ligand with soluble receptor-Ig; type: cell-based, human; settings: 10 ng/ml ligand; for effect of pre-incubation with sDcR1 on pro-apoptotic activity: sDcR1 up to 2 μg/ml
Experimental: (A) Effect of soluble recombinant DcR1-Ig (sDcR1) on apoptosis induction by TRAIL and DR5-selective variants. […] All graphs are representatives of two independent repeats. (D) Neutralizing antibodies against DcR1 and DcR2 can augment wtTRAIL- but not DR5-variant induced cell death. […] Induction of apoptosis was measured 3 h post-treatment using Annexin V assay. […] The graphs show the average±SEM of three independent experiments.
Induction of cell death was assessed by Annexin V assay 3 h after treatment (FIG. 14), as described above. […] (FIG. 14C). This confirms that the observed differences in blocking efficacy are due to reduced ability of the decoy receptors to bind and inhibit D269H and D269HE195R.

[9] = tested on: A2780 cells; test: Microculture tetrazolium cytotoxicity assay in A2780; type: cell-based, human; settings: A2780, 96 h
Experimental: The microculture tetrazolium assay, performed as described earlier^36, was used to measure cytotoxicity. […] In cell viability assays assessing combination treatment with cisplatin, the cells were pre-incubated for 4 h (h) with 2.5 μM cisplatin (inhibitory concentration 20%-IC20), before addition of 0-25 ng/ml TRAIL or TRAIL-DR5.

[10] = lowest dose 1 mg/kg + 200 mg/kg aspirin

B1: wtTRAIL: wild-type soluble recombinant human TRAIL, amino acids 114-281 (SEQ ID NO: 3) (protein, listed as Homo sapiens)
chain: MVRRGRVAAHTGTRGRSNTSSNSKNKAGRKNSWSSRSGHSSNHRNGVHKGYYYSTYRKNTKNDKMVYYKYTSYDMKSARNSCWSKDAYGYSYGGKNDRVSVTNHDMDHASGAVG
modifications: TRAIL 114-281
cell viability, single agent [1]: comparable
effect of combination with bortezomib [1]: increased tumor cell death
cell death ([2]; EM-2, 50 ng/ml): > 80%
cell viability with or without 5-Flurouracil [3]: equal decrease in cell viability
effect of combination with aspirin ([4]; 5 mg/kg + 200 mg/kg aspirin): additive effect
effect of combination with aspirin [4, 10]: additive effect
Kd ([5]; surface plasmon resonance, read-out: binding affinity Kd for DcR2): ~8 nM
effect of combination with bortezomib [6]: increased tumor cell death
sensitivity, single agent [6]: resistant
sensitisation by aspirin [7]: increased the sensitivity
effect of pre-incubation with sDcR2 on apoptosis induction [8]: able to block apoptosis induction
effect of pre-incubation with soluble DR5 on pro-apoptotic activity [8]: completely block
effect of pre-incubation with sDcR1 on pro-apoptotic activity [8]: completely blocked
cell survival / viability [9]: dose dependent loss of viability

B2: D269HE195R: rhTRAIL (114-281) carrying mutations D269H and E195R; DR5-selective TRAIL variant (protein)
chain: MVRERGPQRVAAHITGTRGRSNTLSSPNSKNEKALGRKINSWESSRSGHSFLSNLHLRNGELVIHEKGFYYIYSQTYFRFQERIKENTKNDKQMVQYIYKYTSYPDPILLMKSARNSCWSKDAEYGLYSIYQGGIFELKENDRIFVSVTNEHLIDMHHEASFFGAFLVG
cell viability, single agent [1]: comparable
effect of combination with bortezomib [1]: increased tumor cell death
cell death induction ([2]; EM-2 cells): hardly any apoptosis
cell viability with or without 5-Flurouracil [3]: equal decrease in cell viability
effect of combination with aspirin ([4]; 5 mg/kg + 200 mg/kg aspirin): not visible
anti-tumor effect, single therapy ([4]; listed as TRAIL-DR5): nice response
anti-tumor effect, single therapy ([4]; listed as mutant TRAIL): reduces the tumor growth; also recorded: some positive effect on the tumor growth
effect of combination with aspirin [4, 10]: additive effect
affinity for DcR2 ([5]; earlier work referred to): reduced
effect of combination with bortezomib [6]: increased tumor cell death
sensitivity, single agent [6]: resistant
sensitisation by aspirin [7]: much more pronounced
effect of pre-incubation with sDcR2 on apoptosis induction [8]: no complete protection could be achieved
effect of pre-incubation with sDcR1 on pro-apoptotic activity [8]: failed to reduce
cell survival / viability [9]: decreased cell survival more effectively than TRAIL
